{
  "source": "paper PMC10998612",
  "binders": {"B1": {"name": "fluorescein-labeled peptide corresponding to repeat 3 (PPP1R15A^420-466), wild type, O75807 F428A; W432A (peptide)", "chain": "ASTPPASAALKAAVYRPGEDTEEEEDEDVDSEDKEDDSEAALGEAES"}},
  "target": "eIF2 trimer (recombinant, not phosphorylated), P05198;P20042;P41091",
  "sequence (chain, as listed by the source, chain 1 of 3)": "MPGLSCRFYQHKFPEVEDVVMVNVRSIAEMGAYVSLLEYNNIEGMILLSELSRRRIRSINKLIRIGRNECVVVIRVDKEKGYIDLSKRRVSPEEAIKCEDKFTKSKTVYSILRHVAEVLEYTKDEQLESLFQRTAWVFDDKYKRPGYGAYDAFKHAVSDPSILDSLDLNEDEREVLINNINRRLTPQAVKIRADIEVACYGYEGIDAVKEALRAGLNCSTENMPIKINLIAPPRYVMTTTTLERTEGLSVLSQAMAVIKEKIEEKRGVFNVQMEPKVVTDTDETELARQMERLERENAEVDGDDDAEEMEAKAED",
  "sequence (chain, as listed by the source, chain 2 of 3)": "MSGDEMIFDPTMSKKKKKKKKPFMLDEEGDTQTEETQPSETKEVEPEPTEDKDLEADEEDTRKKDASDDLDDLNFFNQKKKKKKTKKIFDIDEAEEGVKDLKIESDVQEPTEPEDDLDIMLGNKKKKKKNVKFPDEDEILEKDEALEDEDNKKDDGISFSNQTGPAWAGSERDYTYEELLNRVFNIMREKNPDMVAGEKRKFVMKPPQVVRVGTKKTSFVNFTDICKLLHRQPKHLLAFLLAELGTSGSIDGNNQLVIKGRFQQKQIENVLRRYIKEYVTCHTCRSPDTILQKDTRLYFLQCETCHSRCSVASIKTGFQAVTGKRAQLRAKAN",
  "sequence (chain, as listed by the source, chain 3 of 3)": "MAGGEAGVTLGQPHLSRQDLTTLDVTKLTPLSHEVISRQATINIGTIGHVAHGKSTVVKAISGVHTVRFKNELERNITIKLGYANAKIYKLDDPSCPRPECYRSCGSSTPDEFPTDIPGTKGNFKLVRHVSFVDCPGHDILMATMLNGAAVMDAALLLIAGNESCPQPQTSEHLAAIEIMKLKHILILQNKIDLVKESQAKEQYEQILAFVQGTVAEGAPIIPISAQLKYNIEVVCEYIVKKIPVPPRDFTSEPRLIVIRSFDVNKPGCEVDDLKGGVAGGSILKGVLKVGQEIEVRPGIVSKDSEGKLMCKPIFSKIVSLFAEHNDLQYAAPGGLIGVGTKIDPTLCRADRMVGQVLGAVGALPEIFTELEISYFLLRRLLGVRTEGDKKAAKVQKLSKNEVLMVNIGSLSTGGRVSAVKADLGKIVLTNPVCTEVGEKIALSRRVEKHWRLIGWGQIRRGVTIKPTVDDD",
  "experiment": "fluorescence polarisation",
  "details": "chain shown with the change; 2.0 µM eIF2 trimer (highest analyte concentration); fluorescein-labeled R3 420-466 peptide as probe; parent: est. 90; read off a plot",
  "data": [
    {"binder": "B1", "values": [
      {"measurement": "response", "value": 27, "unit": "mP"}
    ]}
  ]
}
